The values that follow come from CN116262786A (NANJING RONGJIEKANG BIOTECHNOLOGY CO LTD, dated 2023).

For assay [1], the target named is T1, 人源重组FOLR1蛋白 (人源FOLR1重组胞外结构域蛋白) (human, UniProt P15328 25-233).
T1 construct: range 25-233; a tag is not mentioned; also called FOLR1重组蛋白; 人FOLR1
Put plainly: ELISA, coated FOLR1 1 μg/mL, purified prokaryotic VHH titrated from 2 μg/mL, anti-HA-HRP. In general terms: ELISA stands for enzyme-linked immunosorbent assay.

Assay [2] deals with T1, 人源重组FOLR1蛋白 (人源FOLR1重组胞外结构域蛋白). Put plainly: ELISA, coated FOLR1 of each species 1 μg/mL, VHH-hFc titrated from 2 μg/mL, goat anti-human IgG-HRP.
For assay [3], the target named is T2, 小鼠FOLR1 (小鼠 (mouse), UniProt P35846 25-232, limits assumed).
T2 construct: also called mouse FOLR1
The description is as above.

In assay [4] the target is T1, 人源重组FOLR1蛋白 (人源FOLR1重组胞外结构域蛋白). Description: ELISA of crude periplasmic extract on coated FOLR1 recombinant protein, anti-HA-HRP; positive = OD more than 5 times control.

T2 sequence (P35846 25-232 limits assumed): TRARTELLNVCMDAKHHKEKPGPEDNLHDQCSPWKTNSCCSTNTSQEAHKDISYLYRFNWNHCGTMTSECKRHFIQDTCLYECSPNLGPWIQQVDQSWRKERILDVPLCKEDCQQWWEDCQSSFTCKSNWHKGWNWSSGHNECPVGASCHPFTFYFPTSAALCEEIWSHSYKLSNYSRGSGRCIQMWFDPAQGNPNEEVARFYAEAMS
T1 sequence (P15328 25-233 limits assumed): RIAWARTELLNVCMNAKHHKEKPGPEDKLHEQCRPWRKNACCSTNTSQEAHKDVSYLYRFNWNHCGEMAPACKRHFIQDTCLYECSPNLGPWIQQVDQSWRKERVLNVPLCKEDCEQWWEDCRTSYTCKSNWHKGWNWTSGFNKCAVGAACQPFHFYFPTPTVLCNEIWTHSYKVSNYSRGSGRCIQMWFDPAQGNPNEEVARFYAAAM

B1: 单域抗体2D8 (VHH)
VHH: QVQLVESGGGSVQAGGSLRLSCAASDYTYRRYCMGWFRQAPGKEREKVAAIYLGDGTTYYTDSVKGRFTISQENAKNTIYLQMNNLKPEDTAMYYCAADRSGCSVTWSYSAFEDWGQGTQVTVSS
notes: Prokaryotic (E. coli) VHH from pMECS-VHH; also called VHH8; not shown: tags from vector pMECS (detected with anti-HA, purified on nickel column)
On to B1, for which, in assay [1], the binding result is reported as “binds”.

B2: 2D8-hFC1 (Fc fusion, human, not shown: a dimerising Fc or GST; small tags and cut ends)
chain: QVQLVESGGGSVQAGGSLRLSCAASDYTYRRYCMGWFRQAPGKEREKVAAIYLGDGTTYYTDSVKGRFTISQENAKNTIYLQMNNLKPEDTAMYYCAADRSGCSVTWSYSAFEDWGQGTQVTVSS
notes: domain: Fc区段 (铰链区 Hinge, CH2和CH3区); VHH cloned into vector RJK-V4-hFC; also called VHH-hFc 2D8; 单域抗体2D8的Fc融合抗体
With B2, the binding result in assay [2] and in assay [3] was “binds” each time.

B3: 单域抗体1D11 (VHH)
VHH: QVQLVESGGGSVQAGGSLRLSCAASGDTYSSACMDWFRQAPGKEREGVAGISSGGSTYYADSVKGRFTISRDNAKNTLYLQMNSLKPEDTAMYYCAARRVGRIPCRTMLPGLQDYWGQGTQVTVSS
notes: Prokaryotic (E. coli) VHH from pMECS-VHH; also called VHH2; not shown: tags from vector pMECS (detected with anti-HA, purified on nickel column)
As for B3, in assay [4], the binding result is listed as “binds”.

B4: 1D11-hFC1 (Fc fusion, human, not shown: a dimerising Fc or GST; small tags and cut ends)
chain: QVQLVESGGGSVQAGGSLRLSCAASGDTYSSACMDWFRQAPGKEREGVAGISSGGSTYYADSVKGRFTISRDNAKNTLYLQMNSLKPEDTAMYYCAARRVGRIPCRTMLPGLQDYWGQGTQVTVSS
notes: domain: Fc区段 (铰链区 Hinge, CH2和CH3区); VHH cloned into vector RJK-V4-hFC; also called VHH-hFc 1D11; 单域抗体1D11的Fc融合抗体
Take B4: the binding result in assay [2] and in assay [3] was “binds” in each case.

B5: 单域抗体4E11 (VHH)
VHH: QVQLVESGGGSVQAGGSLRLSCAVSGYTYSSNSMGWFRQAPGKEREGVAAIYTGGGSTYYADSVKGRFTISQDNAKNTVYLQMNSLKPEDTAMYYCAAGGPTWYDGSWSRGDEYTYWGQGTQVTVSS
notes: Prokaryotic (E. coli) VHH from pMECS-VHH; also called VHH18; not shown: tags from vector pMECS (detected with anti-HA, purified on nickel column)
Turning to B5, the binding result in assay [1] is “binds”.

B6: 4E11-hFC1 (Fc fusion, human, not shown: a dimerising Fc or GST; small tags and cut ends)
chain: QVQLVESGGGSVQAGGSLRLSCAVSGYTYSSNSMGWFRQAPGKEREGVAAIYTGGGSTYYADSVKGRFTISQDNAKNTVYLQMNSLKPEDTAMYYCAAGGPTWYDGSWSRGDEYTYWGQGTQVTVSS
notes: domain: Fc区段 (铰链区 Hinge, CH2和CH3区); VHH cloned into vector RJK-V4-hFC; also called VHH-hFc 4E11; 单域抗体4E11的Fc融合抗体
Take B6: the binding result in assay [2] and in assay [3] was “binds” throughout.

B7: 单域抗体3H11 (VHH)
VHH: QVQLVESGGGSVQTGGSPRLSCAVSGHTYSRLSMGWFRQAPGKEREGVAGIYTGGPSGPMTYYADSVKGRFTISQDNAQRTVYLQMNSLKPEDTAMYYCAATPQFLIGSGLLRPDKYNSWGQGTQVTVSS
notes: Prokaryotic (E. coli) VHH from pMECS-VHH; also called VHH15; not shown: tags from vector pMECS (detected with anti-HA, purified on nickel column)
On to B7, for which the binding result in assay [1] is reported as “binds”.

B8: 3H11-hFC1 (Fc fusion, human, not shown: a dimerising Fc or GST; small tags and cut ends)
chain: QVQLVESGGGSVQTGGSPRLSCAVSGHTYSRLSMGWFRQAPGKEREGVAGIYTGGPSGPMTYYADSVKGRFTISQDNAQRTVYLQMNSLKPEDTAMYYCAATPQFLIGSGLLRPDKYNSWGQGTQVTVSS
notes: domain: Fc区段 (铰链区 Hinge, CH2和CH3区); VHH cloned into vector RJK-V4-hFC; also called VHH-hFc 3H11; 单域抗体3H11的Fc融合抗体
Take B8: the binding result in assay [2] and in assay [3] was “binds” in each case.

B9: 单域抗体2E5 (VHH)
VHH: QVQLVESGGGSVQAGGSLRLSCAASGYPYHRVSMGWFRQAPGKEREGVAGIYTGGLYTGGSMTYYADSVKGRFTISQDNARNTVYLQMNSLKPEDTAMYYCAATPQFLIGSGLLRPDKYNSWGQGTQVTVSS
notes: Prokaryotic (E. coli) VHH from pMECS-VHH; also called VHH11; not shown: tags from vector pMECS (detected with anti-HA, purified on nickel column)
For the molecule B9, the binding result in assay [1] is “binds”.

B10: 2E5-hFC1 (Fc fusion, human, not shown: a dimerising Fc or GST; small tags and cut ends)
chain: QVQLVESGGGSVQAGGSLRLSCAASGYPYHRVSMGWFRQAPGKEREGVAGIYTGGLYTGGSMTYYADSVKGRFTISQDNARNTVYLQMNSLKPEDTAMYYCAATPQFLIGSGLLRPDKYNSWGQGTQVTVSS
notes: domain: Fc区段 (铰链区 Hinge, CH2和CH3区); VHH cloned into vector RJK-V4-hFC; also called VHH-hFc 2E5; 单域抗体2E5的Fc融合抗体
Take B10: the binding result in assay [2] and in assay [3] was “binds” in each case.

B11: 单域抗体4B10 (VHH)
VHH: QVQLVESGGGLVQAGGSLRLSCTASGFTFDDYAMGWFRQAPGKEREGVSCISWNGGSTFYADSVKGRFTIVRDNAKNTVYLEMNSLKPEDTAMYYCAALAYCSGGHWSPGDLSGGYWGQGTQVTVSS
notes: Prokaryotic (E. coli) VHH from pMECS-VHH; also called VHH14; not shown: tags from vector pMECS (detected with anti-HA, purified on nickel column)
Consider B11, for which the binding result in assay [1] was “binds”.

B12: 4B10-hFC1 (Fc fusion, human, not shown: a dimerising Fc or GST; small tags and cut ends)
chain: QVQLVESGGGLVQAGGSLRLSCTASGFTFDDYAMGWFRQAPGKEREGVSCISWNGGSTFYADSVKGRFTIVRDNAKNTVYLEMNSLKPEDTAMYYCAALAYCSGGHWSPGDLSGGYWGQGTQVTVSS
notes: domain: Fc区段 (铰链区 Hinge, CH2和CH3区); VHH cloned into vector RJK-V4-hFC; also called VHH-hFc 4B10; 单域抗体4B10的Fc融合抗体
Turning to B12, the binding result in assay [2] and in assay [3] was “binds” in each case.

B13: 单域抗体3B3 (VHH)
VHH: QVQLVESGGGSVQAGGSLRLSCAASGYTYRRLSMGWFRQAPGKEREAVGGIYTGESMTYYADSVRGRFTISQDNAQNTVYLQMNSLKPEDTATYYCAATPQFLIGSGLLRPDKYDSWGQGTQVTVSS
notes: Prokaryotic (E. coli) VHH from pMECS-VHH; also called VHH4; not shown: tags from vector pMECS (detected with anti-HA, purified on nickel column)
Turning to B13, in assay [1], the binding result was “binds”.

B14: 3B3-hFC1 (Fc fusion, human, not shown: a dimerising Fc or GST; small tags and cut ends)
chain: QVQLVESGGGSVQAGGSLRLSCAASGYTYRRLSMGWFRQAPGKEREAVGGIYTGESMTYYADSVRGRFTISQDNAQNTVYLQMNSLKPEDTATYYCAATPQFLIGSGLLRPDKYDSWGQGTQVTVSS
notes: domain: Fc区段 (铰链区 Hinge, CH2和CH3区); VHH cloned into vector RJK-V4-hFC; also called VHH-hFc 3B3; 单域抗体3B3的Fc融合抗体
In the case of B14, the binding result in assay [2] and in assay [3] was “binds” throughout.
